Measurements from patent publication US20180148504A1.

What was measured:
[1] = biological target: recombinant purified FRα (ECL assay calibrator) (human) (UniProt P15328); assay: ECL sandwich competition; competitors 9F3 capture / 24F12 detection; FRα standard STD02; MORAb-003 50 µg/mL
[2] = biological target: recombinant purified FRα (ECL assay calibrator) (human) (UniProt P15328); assay: ECL sandwich competition; competitors 9F3 capture / 24F12 detection; FRα standard STD03; MORAb-003 10 µg/mL
[3] = biological target: endogenous folate receptor alpha in human serum and plasma samples (human) (UniProt P15328); assay: ECL sandwich capture 19D2.G9 / detection 26A9.C4; serum incubated overnight with 10 µg/mL MORAb-003
[4] = biological target: endogenous folate receptor alpha in human serum and plasma samples (human) (UniProt P15328); assay: ECL sandwich capture 19D4.B7 / detection 24H8.F3; serum incubated overnight with 10 µg/mL MORAb-003
[5] = biological target: recombinant purified FRα (ECL assay calibrator) (human) (UniProt P15328); assay: ECL sandwich capture 24H8.D3 / detection 6A2.G7; calibrator incubated overnight with 10 µg/mL MORAb-003
[6] = biological target: recombinant purified FRα (ECL assay calibrator) (human) (UniProt P15328); assay: ECL sandwich capture 24H8.F3 / detection 6A2.G7; calibrator incubated overnight with 10 µg/mL MORAb-003
[7] = biological target: recombinant purified FRα (ECL assay calibrator) (human) (UniProt P15328); assay: ECL sandwich capture 6A2.G7 / detection 19D2.G9; calibrator incubated overnight with 10 µg/mL MORAb-003
[8] = biological target: endogenous folate receptor alpha in human serum and plasma samples (human) (UniProt P15328); assay: ECL sandwich capture 1A8.G11.E7 / detection 24H8.F3; serum incubated overnight with 10 µg/mL MORAb-003
[9] = biological target: endogenous folate receptor alpha in human serum and plasma samples (human) (UniProt P15328); assay: ECL sandwich capture 1A8.G11.E7 / detection 19D4.B7; serum incubated overnight with 10 µg/mL MORAb-003
[10] = biological target: recombinant purified FRα (ECL assay calibrator) (human) (UniProt P15328); assay: ECL sandwich capture 19D2.G9 / detection 19D4.B7; calibrator incubated overnight with 10 µg/mL MORAb-003
[11] = biological target: recombinant purified FRα (ECL assay calibrator) (human) (UniProt P15328); assay: ECL sandwich capture 19D4.B7 / detection 26A9.C4; calibrator incubated overnight with 10 µg/mL MORAb-003
[12] = biological target: recombinant purified FRα (ECL assay calibrator) (human) (UniProt P15328); assay: ECL sandwich capture 24H8.D3 / detection 19D4.B7; calibrator incubated overnight with 10 µg/mL MORAb-003
[13] = biological target: recombinant purified FRα (ECL assay calibrator) (human) (UniProt P15328); assay: ECL sandwich capture 24H8.F3 / detection 19D4.B7; calibrator incubated overnight with 10 µg/mL MORAb-003
[14] = biological target: recombinant purified FRα (ECL assay calibrator) (human) (UniProt P15328); assay: ECL sandwich capture 26A9.C4 / detection 19D4.B7; calibrator incubated overnight with 10 µg/mL MORAb-003
[15] = biological target: recombinant purified FRα (ECL assay calibrator) (human) (UniProt P15328); assay: ECL sandwich capture 2F11.F8 / detection 19D4.B7; calibrator incubated overnight with 10 µg/mL MORAb-003
[16] = biological target: endogenous folate receptor alpha in human serum and plasma samples (human) (UniProt P15328); assay: ECL sandwich competition; competitors 24H8.D3 capture / 19D4.B7 detection; plasma of sample #DLSO-015; MORAb-003 100 µg/mL
[17] = biological target: endogenous folate receptor alpha in human serum and plasma samples (human) (UniProt P15328); assay: ECL sandwich capture 24H8.F3 / detection 30G6.G6.G4.E9; serum incubated overnight with 10 µg/mL MORAb-003
[18] = biological target: recombinant purified FRα (ECL assay calibrator) (human) (UniProt P15328); assay: ECL sandwich capture 1D2.G8.G10 / detection 19D4.B7; calibrator incubated overnight with 10 µg/mL MORAb-003
[19] = biological target: recombinant purified FRα (ECL assay calibrator) (human) (UniProt P15328); assay: ECL sandwich capture 30G6.G6.G4.E9 / detection 28H12.G9; calibrator incubated overnight with 10 µg/mL MORAb-003
[20] = biological target: recombinant purified FRα (ECL assay calibrator) (human) (UniProt P15328); assay: ECL sandwich capture 1C6.E12.G8 / detection 30G6.G6.G4.E9; calibrator incubated overnight with 10 µg/mL MORAb-003
[21] = biological target: recombinant purified FRα (ECL assay calibrator) (human) (UniProt P15328); assay: ECL sandwich capture 1A8.G11.E7 / detection 30G6.G6.G4.E9; calibrator incubated overnight with 10 µg/mL MORAb-003
[22] = biological target: endogenous folate receptor alpha in human serum and plasma samples (human) (UniProt P15328); assay: ECL sandwich, positive control +CONT: capture 26B3.F2 (f1) / detection 19D4.B7; serum incubated overnight with 10 µg/mL MORAb-003

Chain of recombinant purified FRα (ECL assay calibrator) (human) (P15328 25-234 limits assumed): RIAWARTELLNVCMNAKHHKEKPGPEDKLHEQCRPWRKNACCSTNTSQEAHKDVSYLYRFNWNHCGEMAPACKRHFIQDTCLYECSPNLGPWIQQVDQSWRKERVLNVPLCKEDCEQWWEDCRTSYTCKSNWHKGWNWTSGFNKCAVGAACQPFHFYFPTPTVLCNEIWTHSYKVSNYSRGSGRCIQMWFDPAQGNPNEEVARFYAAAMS
Chain of endogenous folate receptor alpha in human serum and plasma samples (human) (P15328 25-234 limits assumed, form in doubt): as the sequence (P15328 25-234 limits assumed) above

- % of signal without MORAb-003 (MORAb-003 interference) [1]: 49%
- % of signal without MORAb-003 (MORAb-003 interference) [2]: 61%
- Drug suppression of serum [3]: -55.6%
- Drug suppression of serum [4]: -10.6%
- Drug Suppression of Cal Signal at 500 pg/mL [5]: -15%
- Drug Suppression of Cal Signal at 500 pg/mL [6]: 7%
- Drug Suppression of Cal Signal at 500 pg/mL [7]: -7%
- Drug suppression of serum [8]: -61.3%
- Drug suppression of serum [9]: -4.78%
- Drug Suppression of Cal Signal at 500 pg/mL [10]: 2%
- Drug Suppression of Cal Signal at 500 pg/mL [11]: -14%
- Drug Suppression of Cal Signal at 500 pg/mL [12]: -3%
- Drug Suppression of Cal Signal at 500 pg/mL [13]: 9%
- Drug Suppression of Cal Signal at 500 pg/mL [14]: 72%
- Drug Suppression of Cal Signal at 500 pg/mL [15]: -2%
- percent inhibition (sample #DLSO-015, plasma) [16]: 10%
- Drug suppression of serum [17]: -0.93%
- Drug Suppression of Cal Signal at 500 pg/mL [18]: -12%
- Drug Suppression of Cal Signal at 500 pg/mL [19]: -15%
- Drug Suppression of Cal Signal at 500 pg/mL [20]: -9%
- Drug Suppression of Cal Signal at 500 pg/mL [21]: -6%
- Drug suppression of serum [22]: 12.1%
B1: farletuzumab (MORAb-003) (antibody, part only; not given: Constant regions, V domains shown, not shown: another chain or arm of the molecule)
VH: EVQLVESGGGVVQPGRSLRLSCSASGFTFSGYGLSWVRQAPGKGLEWVAMISSGGSYTYYADSVKGRFAISRDNAKNTLFLQMDSLRPEDTGVYFCARHGDDPAWFAYWGQGTPVTVSS
VL: DIQLTQSPSSLSASVGDRVTITCSVSSSISSNNLHWYQQKPGKAPKPWIYGTSNLASGVPSRFSGSGSGTDYTFTISSLQPEDIATYYCQQWSSYPYMYTFGQGTKVEIK
